According to PMC9489475 (Nature structural & molecular biology, 2022):

Biological target: the molecule itself
Experiment: cryo-EM structure

B1: band 3 (native, full-length, from human erythrocyte membrane) (natural protein, human (endogenous in red blood cells), UniProt P02730 1-911, looked up)
chain: MEELQDDYEDMMEENLEQEEYEDPDIPESQMEEPAAHDTEATATDYHTTSHPGTHKVYVELQELVMDEKNQELRWMEAARWVQLEENLGENGAWGRPHLSHLTFWSLLELRRVFTKGTVLLDLQETSLAGVANQLLDRFIFEDQIRPQDREELLRALLLKHSHAGELEALGGVKPAVLTRSGDPSQPLLPQHSSLETQLFCEQGDGGTEGHSPSGILEKIPPDSEATLVLVGRADFLEQPVLGFVRLQEAAELEAVELPVPIRFLFVLLGPEAPHIDYTQLGRAAATLMSERVFRIDAYMAQSRGELLHSLEGFLDCSLVLPPTDAPSEQALLSLVPVQRELLRRRYQSSPAKPDSSFYKGLDLNGGPDDPLQQTGQLFGGLVRDIRRRYPYYLSDITDAFSPQVLAAVIFIYFAALSPAITFGGLLGEKTRNQMGVSELLISTAVQGILFALLGAQPLLVVGFSGPLLVFEEAFFSFCETNGLEYIVGRVWIGFWLILLVVLVVAFEGSFLVRFISRYTQEIFSFLISLIFIYETFSKLIKIFQDHPLQKTYNYNVLMVPKPQGPLPNTALLSLVLMAGTFFFAMMLRKFKNSSYFPGKLRRVIGDFGVPISILIMVLVDFFIQDTYTQKLSVPDGFKVSNSSARGWVIHPLGLRSEFPIWMMFASALPALLVFILIFLESQITTLIVSKPERKMVKGSGFHLDLLLVVGMGGVAALFGMPWLSATTVRSVTHANALTVMGKASTPGAAAQIQEVKEQRISGLLVAVLVGLSILMEPILSRIPLAVLFGIFLYMGVTSLSGIQLFDRILLLFKPPKYHPDVPYVKRVKTWRMHLFTGIQIICLAVLWVVKSTPASLALPFVLILTVPLRRVLLPLIFRNVELQCLDADDAKATFDEEEGRDEYDEVAMPV
modifications: N-glycan site N642 (N-acetylglucosamine modelled close to N642)
**Q.** B1 was tested. Which “stoichiometry N” value did it give?
**A.** Its value is 2.
